Literature values as cited in article PMC9709720, “An orally available small molecule that targets soluble TNF to deliver anti-TNF biologic-like efficacy in rheumatoid arthritis” (Frontiers in Pharmacology, 2022).

Tested on: free soluble TNF in human synovial tissue
Parameters: method as in Tani et al. (2013)
Conditions: one third of reported steady state concentration, synovial fluid; ref Tani et al. (2013)

| Substance | Css^f used in model |
| --- | --- |
| infliximab | 17 nM |
| etanercept | 2.2 nM |
